Test results: PMC6168491, “Sin3A recruits Tet1 to the PAH1 domain via a highly conserved Sin3-Interaction Domain” (Scientific Reports, 2018)
Residue numbers refer to the chain shown, from its start. Names and notes keep the numbering of the source. Like-named read-outs stand apart in the source and are kept apart here.

Biological target: T1, PAH1(115–212) for NMR (UniProt Q60520 115-212)
T1 construct: Sin3A PAH1 domain, residues 115–212; Same construct as m29; also called apo-PAH1; 15N-labelled PAH1(115–212); source: 15N labelled in M9 minimal media
T1 sequence (looked up): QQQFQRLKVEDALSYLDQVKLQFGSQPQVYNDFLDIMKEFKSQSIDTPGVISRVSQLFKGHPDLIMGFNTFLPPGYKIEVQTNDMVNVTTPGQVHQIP
Test: NMR titration; 15N-HSQC of 150 µM 15N-labelled PAH1(115–212) with 150 µM unlabelled Tet1(878–911) (1:1; also sub-stoichiometric ratio); 303 K; 20 mM Tris-HCl pH 7.4, 50 mM NaCl, 1 mM DTT; average minimal shift analysis

With “Tet1-SID(878–911) L897A for NMR (from UniProt Q3URK3 861-894) (domain or fragment)” the Δδmin (average minimal shift, relative to the WT complex) was 0.118 and the Δδmin (average minimal shift, relative to the apo-protein) was 0.061.

B1: Tet1-SID(878–911) for NMR (domain or fragment, UniProt Q3URK3 861-894, looked up)
chain: LSLMKDRRLTLEQVVAIEALTQLSEAPSESSSPS
notes: Same construct as m24; also called WT
With B1 the Kd (both partners purified) was < 100 nM.

B2: Tet1-SID(878–911) I894A for NMR (domain or fragment, UniProt Q3URK3 861-894, looked up)
chain: B1 chain with I17A
notes: Tag removal for NMR was conducted as needed
With B2 the “Δδmin (average minimal shift, relative to the WT complex)” value (both partners purified) was 0.061.

B3: Tet1-SID(878–911) L900A for NMR (domain or fragment, UniProt Q3URK3 861-894, looked up)
chain: B1 chain with L23A
notes: as for B2
With B3 the “Δδmin (average minimal shift, relative to the WT complex)” value (both partners purified) was 0.074.

B4: Tet1-SID(878–911) T898E for NMR (domain or fragment, UniProt Q3URK3 861-894, looked up)
chain: B1 chain with T21E
notes: as for B2
For B4, the “Δδmin (average minimal shift, relative to the WT complex)” value (both partners purified) was 0.038.

B5: Tet1-SID(878–911) T898A for NMR (domain or fragment, UniProt Q3URK3 861-894, looked up)
chain: B1 chain with T21A
notes: as for B2
For B5, the “Δδmin (average minimal shift, relative to the WT complex)” value (both partners purified) was 0.026.
